Laboratory results taken from patent US20220206001A1 (TWIST BIOSCIENCE, published 2022).

B1: Ab-7 (antibody, V domains shown)
VH: EVQLLESGGGLVQPGGSLRLSCAASGFTFSDFAMAWVRQAPGKGLEWVSAISGSGDITYYADSVKGRFTISRDNSKNTLYLQMNSLRAEDTAVYYCAREADGLHSPWHFDLWGQGTLVTVSS
VL: DIQMTQSPSSLSASVGDRVTITCRASQSIHTYLNWYQQKPGKAPKLLIYAASALASGVPSRFSGSGSGTDFTLTISSLQPEDFATYYCQQSYSAPPYTFGQGTKVEIK
B2: Ab-89 (antibody, V domains shown)
VH: EVQLVESGGGLVQPGGSLRLSCAASGIPSTLRAMGWFRQAPGKEREFVALINRSGGSQFYADSVKGRFTISADNSKNTAYLQMNSLKPEDTAVYYCAIGRGSWGQGTLVTVSS

How the values were obtained:
[1] = target: T1, SARS-CoV S1 monomer (SARS-CoV, UniProt P59594 14-667); assay: SPR (Carterra LSA)
T1 construct: domain: S1

[2] = target: SARS-CoV-2 nucleocapsid protein (SARS-CoV-2, UniProt P0DTC9 1-419); assay: lateral flow screen with nucleocapsid protein, capture antibody

Binder	binding result [1]	binding result [2]
B1	binds	
B2		binds
